Here are results for seven molecules from paper PMC13464484, “Ancestral proteins trace the emergence of substrate specificity and oligomerization within bacterial DEDDy dinucleases” (Science Advances, 2026).

A value given as a limit tells only on which side of the number the result lay.

The target of data set [1] is NrnC ortholog from Methylobacter (Methylobacter (genus only)). The data set is described as follows: SEC-MALS; purified protein at 1 to 2 mg/ml (~40 to 80 uM) on Superdex 200 Increase 10/300 GL in gel-filtration buffer (25 mM Hepes-NaOH, 150 mM NaCl, pH 7.5; 500 mM NaCl for ancestor A0), room temperature.
Data set [2] deals with Alphaproteobacterial NrnC ortholog from Sphingomonas (Sphingomonas (genus only)). The data set is described as follows: mass photometry; protein at 100 nM in phosphate-buffered saline, TwoMP instrument.
Data set [3] concerns the target diDNase ortholog from Mycobacterium (Mycobacterium (genus only)). The data set is described as follows: […] (~40 to 80 uM) […], pH 7.5; […], room temperature.
Data set [4] has as its target NrnC ortholog from Thermosynechococcus (Thermosynechococcus (genus only)). The data set is described as follows: SEC-MALS; purified protein at 1 to 2 mg/ml (~40 to 80 uM) on Superdex 200 Increase 10/300 GL in gel-filtration buffer (25 mM Hepes-NaOH, 150 mM NaCl, pH 7.5; 500 mM NaCl for ancestor A0), room temperature.
The target of data set [5] is diDNase ortholog from Nocardia (Nocardia (genus only)). Described as above.
For data set [6], the target named is diDNase ortholog from Actinomadura (Actinomadura (genus only)). The description is as above.
Data set [7] concerns the molecule itself. The data set is described as follows: mass photometry; protein at 100 nM in phosphate-buffered saline, TwoMP instrument.

On to “NrnC ortholog from Methylobacter (enzyme)”, for which the stoichiometry N in data set [1] turned out to be 8. In data set [2], “Alphaproteobacterial NrnC ortholog from Sphingomonas (enzyme)” displayed a percent dimers above 85% and a stoichiometry N of 2. As to “diDNase ortholog from Mycobacterium (enzyme)”, the stoichiometry N in data set [3] stood at 2. In the case of “NrnC ortholog from Thermosynechococcus (enzyme)”, the stoichiometry N in data set [4] is 8. Turning to diDNase ortholog from Nocardia (enzyme), the stoichiometry N in data set [5] came to 2. For “diDNase ortholog from Actinomadura (enzyme)”, the stoichiometry N in data set [6] worked out at 2.

B1: Alphaproteobacterial NrnC ortholog from Caulobacter (enzyme)
chain: MANFVHEGDLPDGVFADAEIIAIDSETMGLRLRRDPLCVVQLSAGDGDAHVVRLSRPDYDCPNLKALLTNPKVLKLFHFGRFDIAMFELHLGVVTAPVYCTKIASKLARTYTDRHGLKDVTRELLGVELSKVQQSSDWGAPSLSVDQVAYAASDVLHLHGLRLKLNAMLEREGRMALAQHAFDYLPHRASLDLAGWEEMDIFAHS
Take B1: the “stoichiometry N” value in data set [7] was determined as 2.
